Values belong to the binder of their own block, whether it stands above or below them.
Biological target: T1, Flag-Mpl-VN (full-length thrombopoietin receptor Mpl fused to the N-terminal half of Venus) (UniProt P40238 26-635)
T1 construct: Inserted between Flag and VN in pBiFC-VN173; also called pFlag-Mpl-VN; source: Cos-1, transiently transfected, in living cells; not shown: Flag, N-terminal, kept; Venus N-terminal fragment 1-173 (VN), C-terminal, kept
T1 sequence (looked up): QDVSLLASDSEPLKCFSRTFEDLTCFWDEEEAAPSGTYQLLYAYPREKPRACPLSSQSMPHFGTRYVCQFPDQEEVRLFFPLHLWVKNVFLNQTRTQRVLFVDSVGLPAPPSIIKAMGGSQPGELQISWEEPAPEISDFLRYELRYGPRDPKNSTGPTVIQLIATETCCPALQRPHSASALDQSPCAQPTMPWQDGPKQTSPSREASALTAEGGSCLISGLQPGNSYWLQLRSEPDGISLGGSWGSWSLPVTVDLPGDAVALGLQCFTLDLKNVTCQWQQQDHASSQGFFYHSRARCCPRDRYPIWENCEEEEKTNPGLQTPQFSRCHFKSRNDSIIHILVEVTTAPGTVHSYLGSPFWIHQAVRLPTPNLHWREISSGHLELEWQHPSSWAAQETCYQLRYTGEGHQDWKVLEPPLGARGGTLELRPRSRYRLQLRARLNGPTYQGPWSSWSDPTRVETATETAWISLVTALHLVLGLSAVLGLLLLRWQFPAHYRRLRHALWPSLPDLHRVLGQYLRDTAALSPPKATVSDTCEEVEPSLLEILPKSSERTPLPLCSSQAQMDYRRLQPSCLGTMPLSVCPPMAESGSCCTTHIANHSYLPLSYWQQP
Assay: split reporter (BiFC, NanoBiT); Venus BiFC read by flow cytometry of Cos-1 cells, 12 h after transfection; 1x10^4 cells, Venus-positive cells against untransfected and empty-vector cells
Conditions: partners not purified

- fold increase of the Venus signal over untransfected Cos-1 cells: 16.2 fold
B1: HA-hNUDC(1-159)-VC (N-terminal half of hNUDC fused to the C-terminal half of Venus) (domain or fragment)
chain: not shown
notes: human NUDC (hNUDC), N-terminal half, residues 1-159; Cloned between HA and VC in pBiFC-VC155; also called pHA-hNUDC(1-159)-VC; source: Cos-1, transiently transfected, in living cells; not shown: HA, N-terminal, kept; Venus C-terminal fragment 155-238 (VC), C-terminal, kept

- fold increase of the Venus signal over untransfected Cos-1 cells: 16.7 fold
B2: HA-hNUDC-VC (full-length human NUDC fused to the C-terminal half of Venus) (natural protein)
chain: not shown
notes: Cloned between HA and VC in pBiFC-VC155; also called pHA-hNUDC-VC; phNUDC-VC; source: Cos-1, transiently transfected, in living cells; not shown: HA, N-terminal, kept; Venus C-terminal fragment 155-238 (VC), C-terminal, kept

— article PMC3524126, “Live-Cell Visualization of Intracellular Interaction between a Nuclear Migration Protein (hNUDC) and the Thrombopoietin Receptor (Mpl)” (PLoS ONE, 2012)
